In paper PMC10721106, “Structure of the siphophage neck–Tail complex suggests that conserved tail tip proteins facilitate receptor binding and tail assembly” (PLOS Biology, 2023):

B3: tail terminal protein gpU (natural protein, bacteriophage lambda, UniProt P03732 1-131, looked up)
chain: MKHTELRAAVLDALEKHDTGATFFDGRPAVFDEADFPAVAVYLTGAEYTGEELDSDTWQAELHIEVFLPAQVPDSELDAWMESRIYPVMSDIPALSDLITSMVASGYDYRRDDDAGLWSSADLTYVITYEM
notes: tail terminal protein gpU of bacteriophage lambda; all 131 residues modelled; O-loop 25-37, E-loop 45-58; also called tail terminator; source: lambda W60 phage grown on E. coli MG1655; virions purified (PEG 8000 precipitation, CsCl gradient)
B11: coat protein gpE (natural protein, bacteriophage lambda, UniProt P03713 1-341, looked up)
chain: MSMYTTAQLLAANEQKFKFDPLFLRLFFRESYPFTTEKVYLSQIPGLVNMALYVSPIVSGEVIRSRGGSTSEFTPGYVKPKHEVNPQMTLRRLPDEDPQNLADPAYRRRRIIMQNMRDEELAIAQVEEMQAVSAVLKGKYTMTGEAFDPVEVDMGRSEENNITQSGGTEWSKRDKSTYDPTDDIEAYALNASGVVNIIVFDPKGWALFRSFKAVKEKLDTRRGSNSELETAVKDLGKAVSYKGMYGDVAIVVYSGQYVENGVKKNFLPDNTMVLGNTQARGLRTYGCIQDADAQREGINASARYPKNWVTTGDPAREFTMIQSAPLMLLADPDEFVSVQLA
notes: major capsid (coat) protein gpE of bacteriophage lambda, as it stands in the mature virion; The introduction gives 415 copies in the head (cited); also called major capsid protein gpE; head protein gpE; source: lambda W60 phage grown on E. coli MG1655; virions purified (PEG 8000 precipitation, CsCl gradient)

What was measured:
[1] = target: T1, tail tube protein gpV (bacteriophage lambda), P03733; experiment: cryo-EM structure; purified lambda virions; local reconstruction of the tail tube (RELION), 3.48 Å; conditions: remark: other sources report otherwise
T1 chain: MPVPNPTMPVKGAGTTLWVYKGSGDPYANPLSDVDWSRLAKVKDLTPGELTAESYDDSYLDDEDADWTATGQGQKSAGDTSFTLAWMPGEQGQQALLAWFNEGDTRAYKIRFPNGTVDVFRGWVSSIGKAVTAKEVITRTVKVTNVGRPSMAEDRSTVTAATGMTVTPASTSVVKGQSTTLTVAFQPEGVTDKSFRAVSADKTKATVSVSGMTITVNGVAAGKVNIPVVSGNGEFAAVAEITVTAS

[2] = target: the molecule itself; experiment: cryo-EM structure; purified lambda virions; local reconstruction of the tail tip complex with C3 symmetry (RELION), 3.44 Å
[3] = target: the molecule itself; experiment: cryo-EM structure; purified lambda virions; local reconstruction of the neck: gpFII, gpU and 2 proximal gpV rings, 3.5 Å
[4] = target: the molecule itself; experiment: cryo-EM structure; purified lambda virions; local reconstruction of the gpB (portal) and gpW (adaptor) rings with 12-fold symmetry, 3.2 Å
[5] = target: B3; experiment: cryo-EM structure; purified lambda virions; local reconstruction of the neck: gpFII, gpU and 2 proximal gpV rings, 3.5 Å; conditions: both partners purified
[6] = target: B11; experiment: cryo-EM structure; purified lambda virions; icosahedral reconstruction of the head, 3.5 Å; conditions: both partners purified
[7] = target: T2, cementing protein gpD (bacteriophage lambda), P03712; experiment: as above; conditions: remark: other sources report otherwise
T2 chain: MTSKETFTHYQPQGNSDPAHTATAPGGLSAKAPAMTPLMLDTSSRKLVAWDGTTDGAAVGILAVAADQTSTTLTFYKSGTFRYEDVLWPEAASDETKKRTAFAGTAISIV

[8] = target: the molecule itself; experiment: as above

B1: tail tube protein gpV, P03733 1-246 (natural protein)
chain: MPVPNPTMPVKGAGTTLWVYKGSGDPYANPLSDVDWSRLAKVKDLTPGELTAESYDDSYLDDEDADWTATGQGQKSAGDTSFTLAWMPGEQGQQALLAWFNEGDTRAYKIRFPNGTVDVFRGWVSSIGKAVTAKEVITRTVKVTNVGRPSMAEDRSTVTAATGMTVTPASTSVVKGQSTTLTVAFQPEGVTDKSFRAVSADKTKATVSVSGMTITVNGVAAGKVNIPVVSGNGEFAAVAEITVTAS
Binder B1 has a stoichiometry N [1] of 6.

B2: insertion protein gpI (natural protein, bacteriophage lambda, UniProt P03730 1-223, looked up)
chain: MAATHTLPLASPGMARICLYGDLQRFGRRIDLRVKTGAEAIRALATQLPAFRQKLSDGWYQVRIAGRDVSTSGLTAQLHETLPDGAVIHIVPRVAGAKSGGVFQIVLGAAAIAGSFFTAGATLAAWGAAIGAGGMTGILFSLGASMVLGGVAQMLAPKARTPRIQTTDNGKQNTYFSSLDNMVAQGNVLPVLYGEMRVGSRVVSQEISTADEGDGGQVVVIGR
notes: insertion protein gpI of bacteriophage lambda in the virion; source: lambda W60 phage grown on E. coli MG1655; virions purified (PEG 8000 precipitation, CsCl gradient)
For B2, the “stoichiometry N” value [2] was 3.

In the case of B3, the “stoichiometry N” value [3] is reported as 6.

B4: portal protein gpB (natural protein, bacteriophage lambda, UniProt P03710 23-533, looked up)
chain: GYHGGGSGFGGQLRSWNPPSESVDAALLPNFTRGNARADDLVRNNGYAANAIQLHQDHIVGSFFRLSHRPSWRYLGIGEEEARAFSREVEAAWKEFAEDDCCCIDVERKRTFTMMIREGVAMHAFNGELFVQATWDTSSSRLFRTQFRMVSPKRISNPNNTGDSRNCRAGVQINDSGAALGYYVSEDGYPGWMPQKWTWIPRELPGGRASFIHVFEPVEDGQTRGANVFYSVMEQMKMLDTLQNTQLQSAIVKAMYAATIESELDTQSAMDFILGANSQEQRERLTGWIGEIAAYYAAAPVRLGGAKVPHLMPGDSLNLQTAQDTDNGYSVFEQSLLRYIAAGLGVSYEQLSRNYAQMSYSTARASANESWAYFMGRRKFVASRQASQMFLCWLEEAIVRRVVTLPSKARFSFQEARSAWGNCDWIGSGRMAIDGLKEVQEAVMLIEAGLSTYEKECAKRGDDYQEIFAQQVRETMERRAAGLKPPAWAAAAFESGLRQSTEEEKSDSRAA
notes: portal protein gpB of bacteriophage lambda in the mature virion; modelled without 23 N-terminal residues, 20 C-terminal residues and the loop 303-319; domains: wing 24-249 and 368-452, stem 250-279 and 343-367, clip 280-342, crown 453-511; source: lambda W60 phage grown on E. coli MG1655; virions purified (PEG 8000 precipitation, CsCl gradient); copies: 12
For B4, the “stoichiometry N” value [4] was 12.

B5: stopper protein gpFII (natural protein, bacteriophage lambda)
chain: MADFDNLFDAAIARADETIRGYMGTSATITSGEQSGAVIRGVFDDPENISYAGQGVRVEGSSPSLFVRTDEVRQLRRGDTLTIGEENFWVDRVSPDDGGSCHLWLGRGVPPAVNRRR
notes: stopper protein gpFII of bacteriophage lambda, 117-residue protein, residues 4-117 resolved; domains: N-terminal α-helix 4-24, β-sandwich 25-41 and 63-107, β-hairpin 46-62, C-terminal loop 108-117; also called neck protein gpFII; source: lambda W60 phage grown on E. coli MG1655; virions purified (PEG 8000 precipitation, CsCl gradient)
With B5 the binding result [5] was “binds” and the “stoichiometry N” value [3] was 6.

B6: central fiber protein gpJ (natural protein, bacteriophage lambda, UniProt P03749 1-1132, looked up)
chain: MGKGSSKGHTPREAKDNLKSTQLLSVIDAISEGPIEGPVDGLKSVLLNSTPVLDTEGNTNISGVTVVFRAGEQEQTPPEGFESSGSETVLGTEVKYDTPITRTITSANIDRLRFTFGVQALVETTSKGDRNPSEVRLLVQIQRNGGWVTEKDITIKGKTTSQYLASVVMGNLPPRPFNIRMRRMTPDSTTDQLQNKTLWSSYTEIIDVKQCYPNTALVGVQVDSEQFGSQQVSRNYHLRGRILQVPSNYNPQTRQYSGIWDGTFKPAYSNNMAWCLWDMLTHPRYGMGKRLGAADVDKWALYVIGQYCDQSVPDGFGGTEPRITCNAYLTTQRKAWDVLSDFCSAMRCMPVWNGQTLTFVQDRPSDKTWTYNRSNVVMPDDGAPFRYSFSALKDRHNAVEVNWIDPNNGWETATELVEDTQAIARYGRNVTKMDAFGCTSRGQAHRAGLWLIKTELLETQTVDFSVGAEGLRHVPGDVIEICDDDYAGISTGGRVLAVNSQTRTLTLDREITLPSSGTALISLVDGSGNPVSVEVQSVTDGVKVKVSRVPDGVAEYSVWELKLPTLRQRLFRCVSIRENDDGTYAITAVQHVPEKEAIVDNGAHFDGEQSGTVNGVTPPAVQHLTAEVTADSGEYQVLARWDTPKVVKGVSFLLRLTVTADDGSERLVSTARTTETTYRFTQLALGNYRLTVRAVNAWGQQGDPASVSFRIAAPAAPSRIELTPGYFQITATPHLAVYDPTVQFEFWFSEKQIADIRQVETSTRYLGTALYWIAASINIKPGHDYYFYIRSVNTVGKSAFVEAVGRASDDAEGYLDFFKGKITESHLGKELLEKVELTEDNASRLEEFSKEWKDASDKWNAMWAVKIEQTKDGKHYVAGIGLSMEDTEEGKLSQFLVAANRIAFIDPANGNETPMFVAQGNQIFMNDVFLKRLTAPTITSGGNPPAFSLTPDGKLTAKNADISGSVNANSGTLSNVTIAENCTINGTLRAEKIVGDIVKAASAAFPRQRESSVDWPSGTRTVTVTDDHPFDRQIVVLPLTFRGSKRTVSGRTTYSMCYLKVLMNGAVIYDGAANEAVQVFSRIVDMPAGRGNVILTFTLTSTRHSADIPPYTFASDVQVMVIKKQALGISVV
notes: central fiber protein gpJ of bacteriophage lambda in the virion; domains HDII, HDII-insertion (with FNIII-A, residues 72-215), HDIII, HDIV (with a β-sandwich, residues 483-569), linker, FNIII-1, FNIII-2, three-helix bundle; source: lambda W60 phage grown on E. coli MG1655; virions purified (PEG 8000 precipitation, CsCl gradient)
In the case of B6, the “stoichiometry N” value [2] is reported as 3.

B7: tape measure protein gpH (natural protein, bacteriophage lambda, UniProt P03736 1-853, looked up)
chain: MAEPVGDLVVDLSLDAARFDEQMARVRRHFSGTESDAKKTAAVVEQSLSRQALAAQKAGISVGQYKAAMRMLPAQFTDVATQLAGGQSPWLILLQQGGQVKDSFGGMIPMFRGLAGAITLPMVGATSLAVATGALAYAWYQGNSTLSDFNKTLVLSGNQAGLTADRMLVLSRAGQAAGLTFNQTSESLSALVKAGVSGEAQIASISQSVARFSSASGVEVDKVAEAFGKLTTDPTSGLTAMARQFHNVSAEQIAYVAQLQRSGDEAGALQAANEAATKGFDDQTRRLKENMGTLETWADRTARAFKSMWDAVLDIGRPDTAQEMLIKAEAAYKKADDIWNLRKDDYFVNDEARARYWDDREKARLALEAARKKAEQQTQQDKNAQQQSDTEASRLKYTEEAQKAYERLQTPLEKYTARQEELNKALKDGKILQADYNTLMAAAKKDYEATLKKPKQSSVKVSAGDRQEDSAHAALLTLQAELRTLEKHAGANEKISQQRRDLWKAESQFAVLEEAAQRRQLSAQEKSLLAHKDETLEYKRQLAALGDKVTYQERLNALAQQADKFAQQQRAKRAAIDAKSRGLTDRQAEREATEQRLKEQYGDNPLALNNVMSEQKKTWAAEDQLRGNWMAGLKSGWSEWEESATDSMSQVKSAATQTFDGIAQNMAAMLTGSEQNWRSFTRSVLSMMTEILLKQAMVGIVGSIGSAIGGAVGGGASASGGTAIQAAAAKFHFATGGFTGTGGKYEPAGIVHRGEFVFTKEATSRIGVGNLYRLMRGYATGGYVGTPGSMADSRSQASGTFEQNNHVVINNDGTNGQIGPAALKAVYDMARKGARDEIQTQMRDGGLFSGGGR
notes: tape measure protein gpH of bacteriophage lambda in the virion; only a C-terminal α-helix modelled (residues 818-842 in the results, 818-849 in the methods); source: lambda W60 phage grown on E. coli MG1655; virions purified (PEG 8000 precipitation, CsCl gradient)
With B7 the “stoichiometry N” value [2] was 3.

B8: cementing protein gpD (natural protein)
chain: MTSKETFTHYQPQGNSDPAHTATAPGGLSAKAPAMTPLMLDTSSRKLVAWDGTTDGAAVGILAVAADQTSTTLTFYKSGTFRYEDVLWPEAASDETKKRTAFAGTAISIV
notes: cementing (decoration) protein gpD of bacteriophage lambda, trimers on the capsid shell of the mature virion; also called head protein gpD; source: lambda W60 phage grown on E. coli MG1655; virions purified (PEG 8000 precipitation, CsCl gradient)
In the case of B8, the binding result [6] is reported as “binds” and the stoichiometry N [7] is reported as 3.

B9: distal tail protein gpM (natural protein, bacteriophage lambda, UniProt P03737 1-109, looked up)
chain: MKTFRWKVKPGMDVASVPSVRKVRFGDGYSQRAPAGLNANLKTYSVTLSVPREEATVLESFLEEHGGWKSFLWTPPYEWRQIKVTCAKWSSRVSMLRVEFSAEFEQVVN
notes: distal tail protein gpM of bacteriophage lambda; all 109 residues resolved; two conformers that differ in the E-loop; source: lambda W60 phage grown on E. coli MG1655; virions purified (PEG 8000 precipitation, CsCl gradient)
In the case of B9, the “stoichiometry N” value [2] is reported as 6.

B10: adaptor protein gpW (natural protein, bacteriophage lambda)
chain: MTRQEELAAARAALHDLMTGKRVATVQKDGRRVEFTATSVSDLKKYIAELEVQTGMTQRRRGPAGFYV
notes: adaptor protein gpW of bacteriophage lambda, 68-residue protein, residues 4-68 resolved; domains: β-hairpin 23-36, two-α-helix bundle 4-22 and 37-54, C-arm 55-68; also called neck protein gpW; source: lambda W60 phage grown on E. coli MG1655; virions purified (PEG 8000 precipitation, CsCl gradient); copies: 12
In the case of B10, the “stoichiometry N” value [4] is reported as 12.

B11: binds [8].
